This assay addresses T1, H2-Kb molecules in the microsomes of RAW309Cr.1 cells (murine).
T1 chain 1: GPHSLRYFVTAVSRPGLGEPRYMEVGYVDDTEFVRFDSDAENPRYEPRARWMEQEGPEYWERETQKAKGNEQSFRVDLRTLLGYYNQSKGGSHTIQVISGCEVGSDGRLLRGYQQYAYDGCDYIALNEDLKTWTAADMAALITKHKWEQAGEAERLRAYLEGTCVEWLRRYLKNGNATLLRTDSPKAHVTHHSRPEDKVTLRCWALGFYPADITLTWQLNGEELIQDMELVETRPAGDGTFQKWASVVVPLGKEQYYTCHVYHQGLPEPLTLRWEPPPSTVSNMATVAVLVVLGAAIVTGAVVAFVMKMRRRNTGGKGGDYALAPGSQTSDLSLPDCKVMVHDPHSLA
T1 chain 2: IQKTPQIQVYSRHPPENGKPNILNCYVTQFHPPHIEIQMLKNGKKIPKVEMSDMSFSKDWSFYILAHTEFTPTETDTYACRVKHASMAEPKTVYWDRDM
Description: competition against 125I-labelled modified OVA peptide (competitor at the concentration of the report peptide), photo-crosslinking to Kb in microsomes. Particulars: remark: other sources report otherwise.

B1: native OVA peptide (residues 257-264, SIINFEKL) (peptide)
peptide: SIINFEKL
B1 showed a percent of the report peptide competed of 50%.

Values taken from patent US20070184022A1.
